Measured values as given in the nanobody polyreactivity screen of Harvey et al. (2022).

experiment: yeast display, Sf9 membrane polyspecificity reagent, FACS + sequencing; frameworks hold sequencing errors
Outline: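 Polyreactivity labels are assigned by the sorting gate from which each nanobody was recovered. The gates were low and high (top ~1%), set on anti-HA fluorescence for expression and streptavidin fluorescence for reagent binding. Before sorting, galactose-induced (36–48 hours) yeast display cells were stained for 1 hour at 4 °C with 10% biotinylated, detergent-solubilized Sf9 membrane reagent.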

Sequence | polyreactivity (PSR sort gate)
QVQLVESGGGLVQAGGSLRLSCAASGFTFDANAMGWYRQAPGKERELVAAITRFGSTFYADSVKGRFTISRDNAKNTVYLQMNSLKPEDTAVYYCNAARDHVSGYDYWGQGTQVTVSS | low polyreactivity
QVQLVESGGGLVQAGGSLRLSCAASGFTFDAYDMGWYRQAPGKERELVAAISWRGIDTTYADSVKGRFTISRDNAKNTVYLQMNSLKPEDTAVYYCAEFVSDATVGPSKGLDYWGQGTQVTVSS | low polyreactivity
QVQLVESGGGLVQAGGSLRLSCAASGFTFDAYTMGWYRQAPGKERELVAAINWSGDTTYYADSVKGRFTISRDNAKNTVYFQMNSLKPEDTAVYYCAAVWWIYGVWFDYWGQGTQVTVSS | high polyreactivity
QVQLVESGGGLVQAGGSLRLSCAASGFTFDFYAMGWYRPAPGKERELVAAISRSGGRTYYADSVKGRFTISRDNAKNTVYLQMNSLKPEDTAVYYCNTGFFYYNFRYYYWGQGTQVTVSS | low polyreactivity
QVQLVESGGGLVQAGGSLRLSCAASGFTFDGYAMGWDRQAPGNERELVAAFSDSGDSTYYADSVKGRFTISRDNAKNTVYLQMNSLTPEDTAVYYCAAGLGYYWSDYFAYDSCGQGTQVTVSS | low polyreactivity
QVQLVESGGGLVQAGGSLRLSCAASGFTFDHYAMGWYRQAPGKERELVARITGTGDSTYYADSVKGRFTISRDNAKNTVYLQRNSLKPEDTAVDYCNADRRYDFYDGYGYWGQGTQVTVSS | low polyreactivity
QVQLVESGGGLVQAGGSLRLSCAASGFTFDKYAMGWYRQAPGKERELVAAISNSGGRTYYADSVKGRFTISRDNAKNTVYLQMNSLKPEDTAVYYCTIFKDYDYWGQGTQVTVSS | high polyreactivity
QVQLVESGGGLVQAGGSLRLSCAASGFTFDNYAMGWYRQAPGKERELVAAINWSGDRTYYADSVKGRFTISRDNAKNTVYLQMNSQIPEDTAVYYCNAVTSWAGSLDYWGQGTQVTVSS | high polyreactivity
QVQLVESGGGLVQAGGSLRLSCAASGFTFDPDAMGWYRQAPGKERELVASITWSGDNTYYADSVKGRFSISRDNAKTTVYLQMNSLKPEDTAVYYCNVEWAWWSTRYDSWGQGTQVTVSS | high polyreactivity
QVQLVESGGGLVQAGGSLRLSCAASGFTFDSNVMGWYRQAPGKEREVVAAITGDDTTYYADSVKGRFTISRDNAKNTVYLQMNSLKPEDTAVYYCAADETESLEYTAYDMYYWGQGTQVTVSS | low polyreactivity
QVQLVESGGGLVQAGGSLRLSCAASGFTFDSYAMGWYRQAPGKERELVASISSSGSTNYADSVKGRFTISRDNAKNTVYLQMNSLKPEDTAVYYCAAESRYPFIYEYWGQGTQVTVSS | low polyreactivity
QVQLVESGGGLVQAGGSLRLSCAASGFTFDTYDMGWYRQAPGKERELVAAIDWSGVSTYYADSVKGRFTISRDNAKNTVYLQMNSLKPEDTAVYYCAADLWQYDIASWDYTYDYWGQGTQVTVSS | low polyreactivity
QVQLVESGGGLVQAGGSLRLSCAASGFTFDWNAMGWYRQAPGKERELVAAISNSDGSTYYADSVKGRFTISRDNAKNTVYLQMNSLKPEDTAVYYCNKLYRGGWYAYWGQGTQVTVSS | low polyreactivity
QVQLVESGGGLVQAGGSLRLSCAASGFTFDYNAMGWYRQAPGKERELVAVISSSGSRTYYADSVKGRFTISRDIAKITVYLQINSLNPEDTAVYYCAAARIGTRDYWGQGTQVSVSS | high polyreactivity
QVQLVESGGGLVQAGGSLRLSCAASGFTFDYNTMGWYRQAPGKEIELVAGISRGGGSTYYADSVKGRFTISRDNAKNTVYLQMNSLKPEVTAVYYCNTVLKRQRKNEYWGQGTQVTVSS | high polyreactivity
QVQLVESGGGLVQAGGSLRLSCAASGFTFDYYAMGWYRQAPGKERELVAAISWSGSTTYYADSVKGRFTISRDNAKNTVYLQMNSLKPEDTAVYYCATNLDRPFDYWGQGTQVTVSS | high polyreactivity
